Results on 11 molecules are retold here after patent US20130052176, “APTAMER FOR NGF AND USE THEREOF” (SHIONOGI & CO., LTD, published 2013).

For data set [1], the target named is T1, NGF (nerve growth factor) (human, UniProt P01138 P01138:122-241). Put plainly: cell_activity; neurite outgrowth, NGF 0.38 nM; TF-1 IC50 0.156 nM. The following applies: tags: human NGF; chain copies: 2. The method, then:
(§1) The neurite outgrowth inhibitory activity of the aptamer obtained in Example 1 was evaluated by using Neuroscreen-1 cell, which is a subclone of PC-12 cells.
(§2) The cells (2500 cells per well) were cultured for one day in an RPMI-1640 medium containing 2.5% horse serum and 1.25% fetal bovine serum in a 96 well flat-bottom plate coated with collagen type IV. […] Two days later, the cytoplasm and nuclei were stained using Cellomics Neurite Outgrowth Kit (manufactured by Thermo Scientific), and neurite length per cell was measured by Cellomics ArrayScan VTI (manufactured by Thermo Scientific). With the neurite length per cell obtained by the addition of NGF alone as inhibitory activity 0%, and that of the cell obtained by NGF free culture for 2 days as inhibitory activity 100%, the inhibitory activity of the aptamer was calculated from the neurite length per cell obtained by culturing with the addition of NGF and the aptamer in mixture. When the inhibitory activity was 0% or below, ‘0%’ is indicated.

The target of data set [2] is T1, NGF (nerve growth factor). Description: cell_activity; neurite outgrowth, NGF 0.38 nM; TF-1 IC50 0.184 nM. The following applies: tags: human NGF; chain copies: 2. The method, then: as §1, §2
The target of data set [3] is T1, NGF (nerve growth factor). Description: cell_activity; neurite outgrowth, NGF 0.38 nM; TF-1 IC50 0.158 nM. The following applies: tags: human NGF; chain copies: 2. The protocol:
as §1, §2

The target of another data set is T2, BDNF (human, UniProt P23560 P23560:129-247).
T2 sequence: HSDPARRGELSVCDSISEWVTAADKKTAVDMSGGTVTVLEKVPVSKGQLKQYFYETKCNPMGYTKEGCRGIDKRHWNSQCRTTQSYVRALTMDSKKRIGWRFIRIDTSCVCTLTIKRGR
Description: cell_activity; TF-1 TrkB/p75 proliferation; SPR showed very fast dissociation. The following applies: tags: R&D Systems; chain copies: 2. The protocol: (§3) The physiological inhibitory activity of the aptamers represented by aptamer IDs: 26(2), 52, 63-65 against BDNF, NT-3, NT-4/5 was evaluated by a growth inhibition assay using TF-1 cells.
(§4) Human receptor genes (TrkB, TrkC, p75) for respective neurotrophic factors were introduced into TF-1 cells (ATCC Number:CRL-2003), which is a human erythroleukemic cell line, by using a retrovirus vector to give cells that highly express these receptors stably. TF-1 cells introduced with TrkB and p75 were used for the evaluation of inhibitory activity against BDNF, TF-1 cells introduced with TrkC and p75 were used for the evaluation against NT-3, and TF-1 cells introduced with TrkB alone were used for the evaluation against NT-4/5. These cells were suspended in an RPMI-1640 medium containing 20% fetal bovine serum, and seeded in a white 96 well flat-bottom plate at 1000 cells (50 μL) per well. […] With the amount of luminescence per well obtained by the addition of BDNF or NT-3 or NT-4/5 alone and culture of the cells for 3 days as inhibitory activity 0%, and that of the cell obtained by culture for 3 days without addition of BDNF or NT3 or NT-4/5 as inhibitory activity 100%, the inhibitory activity of the aptamer was calculated from the amount of luminescence per well obtained by culturing with the addition of BDNF or NT3 or NT-4/5 and the aptamer in mixture. […]

The target in the next data set is T3, NT-4/5 (human, UniProt P34130 P34130:81-210).
T3 sequence: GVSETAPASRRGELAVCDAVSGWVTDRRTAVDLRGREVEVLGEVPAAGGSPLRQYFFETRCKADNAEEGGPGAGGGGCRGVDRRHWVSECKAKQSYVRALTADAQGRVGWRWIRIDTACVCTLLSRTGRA
Description: cell_activity; TF-1 TrkB proliferation; SPR showed very fast dissociation. As to conditions: tags: R&D Systems; chain copies: 2. The method, then: as §3, §4

Data set [4] has as its target T1, NGF (nerve growth factor). Put plainly: cell_activity; neurite outgrowth, NGF 0.38 nM; TF-1 IC50 0.177 nM. The following applies: tags: human NGF; chain copies: 2. The method, then: as §1, §2
Data set [5] has as its target T1, NGF (nerve growth factor). Put plainly: cell_activity; neurite outgrowth, NGF 0.38 nM; TF-1 IC50 0.131 nM. The following applies: tags: human NGF; chain copies: 2. The protocol:
as §1, §2

Data set [6] addresses T1, NGF (nerve growth factor). Description: cell_activity; neurite outgrowth, NGF 0.38 nM; TF-1 IC50 0.203 nM. As to conditions: tags: human NGF; chain copies: 2. The protocol:
as §1, §2

Data set [7] addresses T1, NGF (nerve growth factor). Put plainly: cell_activity; neurite outgrowth, NGF 1.1 nM; TF-1 IC50 1.5 nM. The following applies: tags: human NGF; chain copies: 2. The method, then: as §1, §2
The target in data set [8] is T1, NGF (nerve growth factor). Put plainly: cell_activity; neurite outgrowth, NGF 1.1 nM; TF-1 IC50 4.2 nM. As to conditions: tags: human NGF; chain copies: 2. The method, then: as §1, §2
The target of data set [9] is T1, NGF (nerve growth factor). Put plainly: cell_activity; neurite outgrowth, NGF 1.1 nM; TF-1 IC50 1.7 nM. As to conditions: tags: human NGF; chain copies: 2. The method, then: as §1, §2
The target in data set [10] is T1, NGF (nerve growth factor). Description: cell_activity; neurite outgrowth, NGF 1.1 nM; TF-1 IC50 7.0 nM. As to conditions: tags: human NGF; chain copies: 2. The protocol: as §1, §2

T1 sequence (P01138 122-241, one chain of several): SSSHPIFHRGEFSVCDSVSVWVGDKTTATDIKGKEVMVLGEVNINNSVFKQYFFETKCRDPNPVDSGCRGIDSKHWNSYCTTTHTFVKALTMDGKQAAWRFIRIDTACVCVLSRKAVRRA

B1: aptamer ID 26(24) (mixed)
RNA: GGGAGACUCGCCAGAGUUGAAAGAAACCCAAAUAAGUGUGCGCAC
modifications: as 26(19) (5' and 3' idT; 2'-F pyrimidines; 2'-OMe purines except ribo g3,g19,a20,a26) but c11 is dC
Take B1: the half-maximal inhibitory concentration (IC50) in [1] was determined as 0.226 nM.

B2: aptamer ID 26(28) (mixed)
RNA: GGGAGACUCGCCAGAGUUGAAAGAAACCCAAAUAAGUGUGCGCAC
modifications: as 26(19) (5' and 3' idT; 2'-F pyrimidines; 2'-OMe purines except ribo g3,g19,a20,a26) but u33 is dT
Take B2: the half-maximal inhibitory concentration (IC50) in [2] amounted to 0.2 nM.

B3: aptamer ID 26(27) (mixed)
RNA: GGGAGACUCGCCAGAGUUGAAAGAAACCCAAAUAAGUGUGCGCAC
modifications: as 26(19) (5' and 3' idT; 2'-F pyrimidines; 2'-OMe purines except ribo g3,g19,a20,a26) but c29 is dC
For B3, in data set [3], the IC50 was 0.15 nM.

B4: aptamer ID 26(2) (ssRNA)
RNA: GGGAGACUCGCCAGAGUUGAAAGAAACCCAAAUAAGUGUGCGCAC
modifications: 5' and 3' idT; 2'-F all pyrimidines; 2'-OMe purines except ribo g3,g5,g19,a20,a21,a22,a24,a26
With B4, the half-inhibitory concentration (IC50) with BDNF is > 1000 nM; with NT-4/5, > 300 nM.

B5: aptamer ID 26(26) (mixed)
RNA: GGGAGACUCGCCAGAGUUGAAAGAAACCCAAAUAAGUGUGCGCAC
modifications: as 26(19) (5' and 3' idT; 2'-F pyrimidines; 2'-OMe purines except ribo g3,g19,a20,a26) but u17 is dT
As for B5, the half-maximal inhibitory concentration (IC50) in data set [4] came to 0.285 nM.

B6: aptamer ID 26(29) (mixed)
RNA: GGGAGACUCGCCAGAGUUGAAAGAAACCCAAAUAAGUGUGCGCAC
modifications: as 26(19) (5' and 3' idT; 2'-F pyrimidines; 2'-OMe purines except ribo g3,g19,a20,a26) but u37 is dT
On to B6, for which the IC50 in data set [5] was found to be 0.138 nM. In other words, the sub-nanomolar range.

B7: aptamer ID 26(25) (mixed)
RNA: GGGAGACUCGCCAGAGUUGAAAGAAACCCAAAUAAGUGUGCGCAC
modifications: as 26(19) (5' and 3' idT; 2'-F pyrimidines; 2'-OMe purines except ribo g3,g19,a20,a26) but c12 is dC
Molecule B7 showed an IC50 in [6] of 0.29 nM.

B8: aptamer ID 57(3) (mixed)
mixed: GGGAUAAAAAUAGAGTUUGATAAACACCUGUAUUAAAACCC
modifications: as ID 57 (5' cholesterol; 3' idT; dT16,dT21; 2'-F other pyrimidines and a37,a38; 2'-OMe purines except ribo a4,a7,g30) plus PS between 19 and 20
As to B8, the IC50 in [7] is < 3 nM.

B9: aptamer ID 57(4) (mixed)
mixed: GGGAUAAAAAUAGAGTUUGATAAACACCUGUAUUAAAACCC
modifications: as ID 57 (5' cholesterol; 3' idT; dT16,dT21; 2'-F other pyrimidines and a37,a38; 2'-OMe purines except ribo a4,a7,g30) plus PS between 20 and 21
For B9, in data set [8], the concentration for half-maximal inhibition (IC50) is < 3 nM.

B10: aptamer ID 57(5) (mixed)
mixed: GGGAUAAAAAUAGAGTUUGATAAACACCUGUAUUAAAACCC
modifications: as ID 57 (5' cholesterol; 3' idT; dT16,dT21; 2'-F other pyrimidines and a37,a38; 2'-OMe purines except ribo a4,a7,g30) plus PS between 21 and 22
In the case of B10, in data set [9], the IC50 was < 3 nM.

B11: aptamer ID 57(9) (mixed)
mixed: GGGAUAAAAAUAGAGTUUGATAAACACCUGUAUUAAAACCC
modifications: as ID 57 (5' cholesterol; 3' idT; dT16,dT21; 2'-F other pyrimidines and a37,a38; 2'-OMe purines except ribo a4,a7,g30) plus PS between 29 and 30
Take B11: the 50% inhibitory concentration (IC50) in data set [10] was < 3 nM.
